Measured values reported in patent US20240301062A1 (BEIGENE SWITZERLAND, published 2024).
Values joined by “and” are separate entries in the source; they are usually repeats but may differ in a detail not shown here. Equal values may be shown once.

T1: human claudin 6 (CLDN6) (human, UniProt P56747 1-220)
T1 construct: also called human CLDN6; hCLDN6
T1 sequence: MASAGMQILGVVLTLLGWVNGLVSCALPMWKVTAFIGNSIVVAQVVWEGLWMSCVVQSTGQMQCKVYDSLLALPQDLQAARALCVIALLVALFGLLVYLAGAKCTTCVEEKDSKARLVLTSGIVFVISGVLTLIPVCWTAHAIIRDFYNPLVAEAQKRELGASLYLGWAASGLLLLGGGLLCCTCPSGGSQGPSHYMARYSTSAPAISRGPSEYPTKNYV


Tests used:
[1] = biological target: T1, human claudin 6 (CLDN6); test: FACS, HEK293T/human CLDN6 cells
Experimental: (§1) For affinity determination, CLDN6 over-expressing HEK293T cells and cancer cell line PA-1 which express high levels of human CLDN6 were used to evaluate the binding activity of BG87P related engineering variants. Live cells were seeded in 96-well plate, and were incubated with a series of dilutions of chBG87P and engineered variants thereof. Goat anti-human IgG was used as second antibody to detect antibody binding to the cell surface. EC50 values for dose-dependent binding to CLDN6 expressing cell lines were determined by fitting the dose-response data to the four-parameter logistic model with GraphPad Prism. Cell binding activity of 1st round of BG87P humanization variants against HEK293T/human CLDN6 were compared to chBG87P and shown in FIG. 1A.
Beginning with the chBG87P antibody and BG87P-Bz0, several additional amino acid changes in the CDR regions of both VH and VL were made to further improve the biophysical properties for therapeutics use in human. The considerations included removing post translational modifications (PTM), improved heat stability (Tm), while maintaining binding activities, the resulted variants are BG87P-m1 (VH SEQ ID NO: 31 and VL SEQ ID NO: 8), BG87P-m2 (VH SEQ ID NO: 32 and VL SEQ ID NO: 8), BG87P-m3 (VH SEQ ID NO: 33 and VL SEQ ID NO: 8), and BG87P-m4 (VH SEQ ID NO: 34 and VL SEQ ID NO: 8) and BG87P-m5 (VH SEQ ID NO: 35 and VL SEQ ID NO: 14), BG87P-m6 (VH SEQ ID NO: 36 and VL SEQ ID NO 14), BG87P-m7 (VH SEQ ID NO: 37 and VL SEQ ID NO: 14), and BG87P-m8 (VH SEQ ID NO: 38 and VL SEQ ID NO: 14). Cell binding activity of chBG87P and BG87P-Bz0 related PTM removal variants against HEK293T/human CLDN6 was compared with chBG87P and BG87-Bz0, respectively ([…]). Cell binding affinity (EC50) and Emax (MFI) was normalized to chBG87P for directly comparison and ranking (Table 7).

[2] = biological target: T1, human claudin 6 (CLDN6); test: FACS, PA-1 cells (endogenous CLDN6)
Experimental: as §1

[3] = biological target: T1, human claudin 6 (CLDN6); test: FACS, HEK293-hCLDN6 cells
[4] = biological target: T1, human claudin 6 (CLDN6); test: FACS, HEK293T-hCLDN6 cells

EC50 [1] [nM]	Emax ratio to BG87P [1] [ratio]	Top MFI Mean [1] [MFI]	EC50 [2]	Emax ratio to BG87P [2] [ratio]	FACS-Ec50 ratio to BG87P [3] [ratio]	FACS Emax ratio to BG87P [4] [ratio]	Top MFI Mean [2] [MFI]	Binder
2.12	0.71	137000	3.01 nM and 3 nM	0.54				BG87P-22 (antibody, V domains shown) VH: QVQLVQSGAEVKKPGASVKVSCKASGYSFTDYHINWVRQAPGQRLEWMGWIYPGSGYTKYNEKFKGRVTITRDTSASTAYMELSSLRSEDTAVYFCARSGIYHYVSSYYFDHWGKGTTVTVSS VL: DIQMTQSPSTLSASVGDRVTITCKASQDVGTAVAWYQQKPGKAPKLLIYWASTRHTGVPSRFSGSGSGTEFTLTISSLQPDDFATYYCQQYSSYTFGGGTKVEIK
					1.6	0.76		BG87P-31 (antibody, V domains shown, Solubility engineering variant of BG87P-21) VH: QVQLQQSGAETKKPGASVKVSCKASGYSFTDYHINWVRQASGQRLEWMGYIYPGSGHTKKNEKFKGRVTITRDTSASTAYMELSSLRSEDTAVYYCARSGIYHYVSSYYFDHWGKGTTVTVSS VL: DIQMTQSPSTLSASVGDRVTITCKASQDAGSAVAWYQQKPGKAPKLLIKWASTRHTGVPSRFSGSGSGTEFTLTISSLQPDDFATYYCQQYSSYTFGGGTKVEIK
					1.31	0.63		BG87P-32 (antibody, V domains shown, Solubility engineering variant of BG87P-21) VH: QVQLQQSGAETKKPGASVKVSCKASGYSFTDYHINWVRQASGQRLEWMGYIYPGSGHTKKNEKFKGRVTITRDTSASTAYMELSSLRSEDTAVYYCARSGIYHYVSSYYFDHWGKGTTVTVSS VL: DIQMTQSPSTLSASVGDRVTITCKASQDAGSAVAWYQQKPGKAPKLLIYWASTRHTGVPSRFSGSGSGTEFTLTISSLQPDDFATYYCQQYSSYTFGGGTKVEIK
2.3	0.77	148000	2.3 nM and 2.52 nM	0.54			68000	BG87P-26 (antibody, V domains shown) VH: QIQLVQSGAEVKKPGASVKVSCKASGYSFTDYHINWVRQAPGQRLEWMGWIYPGSGYTKYNEKFKGRVTITRDTSASTAYMELSSLRSEDTAVYFCARSGIYHYVSSYYFDHWGKGTTVTVSS VL: DIQMTQSPSTLSASVGDRVTITCKASQDVGTAVAWYQQKPGKAPKLLIYWASTRHTGVPSRFSGSGSGTEFTLTISSLQPDDFATYYCQQYSSYTFGGGTKVEIK
2.33	0.74	143000	2.34 nM	0.59			73700	BG87P-25 (antibody, V domains shown) VH: QIQLVQSGAEVKKPGASVKVSCKASGYSFTDYHINWVRQAPGQRLEWMGWIYPGSGYTKYNEKFKGRVTLTRDTSASTAYMELSSLRSEDTAVYYCARSGIYHYVSSYYFDHWGKGTTVTVSS VL: DIQMTQSPSTLSASVGDRVTITCKASQDVGTAVAWYQQKPGKAPKLLIYWASTRHTGVPSRFSGSGSGTEFTLTISSLQPDDFATYYCQQYSSYTFGGGTKVEIK
2.16	0.73	141000	2.27 nM	0.5			62400	BG87P-24 (antibody, V domains shown) VH: QVQLVQSGAEVKKPGASVKVSCKASGYSFTDYHINWVRQAPGQRLEWMGWIYPGSGYTKYNEKFKGRVTLTRDTSASTAYMELSSLRSEDTAVYYCARSGIYHYVSSYYFDHWGKGTTVTVSS VL: DIQMTQSPSTLSASVGDRVTITCKASQDVGTAVAWYQQKPGKAPKLLIYWASTRHTGVPSRFSGSGSGTEFTLTISSLQPDDFATYYCQQYSSYTFGGGTKVEIK
2	0.68	131000	1.68 nM	0.53			66700	BG87P-27 (antibody, V domains shown) VH: QVQLVQSGAEVKKPGASVKVSCKASGYSFTDYHINWVRQAPGQRLEWMGWIYPGSGYTKYNEKFKGRVTLTRDTSASTAYMELSSLRSEDTAVYFCARSGIYHYVSSYYFDHWGKGTTVTVSS VL: DIQMTQSPSTLSASVGDRVTITCKASQDVGTAVAWYQQKPGKAPKLLIYWASTRHTGVPSRFSGSGSGTEFTLTISSLQPDDFATYYCQQYSSYTFGGGTKVEIK
2.45	0.5	95600	3.25 nM	0.43			53200	BG87P-z0 (antibody, V domains shown) VH: QVQLVQSGAEVKKPGASVKVSCKASGYTFTDYHINWVRQAPGQRLEWMGWIYPGSGYTKYNEKFKVRVTITRDTSASTAYMELSSLRSEDTAVYYCARSGIYHYVSSYYFDHWGKGTTVTVSS VL: DIQMTQSPSTLSASVGDRVTITCKASQDVGTAVAWYQQKPGKAPKLLIYWASTRHTGVPSRFSGSGSGTEFTLTISSLQPDDFATYYCQQYSSYTFGGGTKVEIK
2.43	0.77	148000	2.49 nM	0.58			72500	BG87P-23 (antibody, V domains shown) VH: QIQLVQSGAEVKKPGASVKVSCKASGYSFTDYHINWVRQAPGQRLEWMGWIYPGSGYTKYNEKFKGRVTITRDTSASTAYMELSSLRSEDTAVYYCARSGIYHYVSSYYFDHWGKGTTVTVSS VL: DIQMTQSPSTLSASVGDRVTITCKASQDVGTAVAWYQQKPGKAPKLLIYWASTRHTGVPSRFSGSGSGTEFTLTISSLQPDDFATYYCQQYSSYTFGGGTKVEIK
2.32	1.18	227000						BG87P-m3 (antibody, V domains shown, PTM removal variant of chBG87P (VH V65G); constant regions not restated (parent: human IgG1/kappa)) VH: QIQLQQSGPELVKPGASVKISCKASGYSFTDYHINWVKQRPGQGLEWIGWIYPGSGYTKYNEKFKGKATLTVDTSSSTAYMHLTSLTSEDSAVYFCARSGIYHYVSSYYFDHWGQGTTLTVSS VL: DIVMTQSHTFMSTSVGDRVSITCKASQDVGTAVAWYQQKPGQSPKLLIYWASTRHTGVPDRFTGSGSGTDFTLTISNVQSEDLADYFCQQYSSYTFGGGTKLEIK
11.8	0.74	143000						BG87P-m4 (antibody, V domains shown, Variant of chBG87P with H33A; constant regions not restated (parent: human IgG1/kappa)) VH: QIQLQQSGPELVKPGASVKISCKASGYSFTDYAINWVKQRPGQGLEWIGWIYPGSGYTKYNEKFKVKATLTVDTSSSTAYMHLTSLTSEDSAVYFCARSGIYHYVSSYYFDHWGQGTTLTVSS VL: DIVMTQSHTFMSTSVGDRVSITCKASQDVGTAVAWYQQKPGQSPKLLIYWASTRHTGVPDRFTGSGSGTDFTLTISNVQSEDLADYFCQQYSSYTFGGGTKLEIK
